The assay deals with peptide probe (designed thiol-sensitive probe mimicking the substrate of the main protease). The assay can be described thus: SPR. A general note: SPR reads the build-up and loss of mass on a sensor chip optically.

As usually defined, the koff is the first-order rate constant of dissociation. As a reminder, the kon is a measure of how fast the partners come together. Substance “main protease of SARS-Cov-2 (from UniProt P0DTD1) (enzyme)” came in with a koff of 0.182 s⁻¹ and a kon of 1.03e+08 M⁻¹ s⁻¹.

Values taken from paper PMC8383480.
